Source: US20140120091A1 (University of Washington, published 2014)

T1: recombinant human CD40L (Peprotech, Catalog #310-02) (human, UniProt P29965 113-261)
T1 construct: Bought reagent; also called rCD40L; immobilized CD40L
T1 sequence (looked up): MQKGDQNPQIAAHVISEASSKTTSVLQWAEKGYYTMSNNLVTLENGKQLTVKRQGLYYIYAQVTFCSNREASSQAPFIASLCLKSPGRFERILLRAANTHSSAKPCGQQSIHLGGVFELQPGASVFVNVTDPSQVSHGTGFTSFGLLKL

T2: human CD40 ligand (CD40L, CD154) expressed on human Jurkat cells (human, UniProt P29965 1-261)
T2 construct: whole, on cells; also called CD40L on Jurkat cells; CD154 (CD40L) expressed on the surface of Jurkat cells
T2 sequence (looked up): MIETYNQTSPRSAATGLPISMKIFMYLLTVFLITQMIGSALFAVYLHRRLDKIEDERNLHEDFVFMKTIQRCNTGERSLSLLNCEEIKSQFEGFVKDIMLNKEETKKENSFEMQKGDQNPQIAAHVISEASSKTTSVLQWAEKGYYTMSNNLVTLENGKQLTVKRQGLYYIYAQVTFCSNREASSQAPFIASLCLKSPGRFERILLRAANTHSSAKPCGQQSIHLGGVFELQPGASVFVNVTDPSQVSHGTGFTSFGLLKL

B1: CD40 EC-Ig fusion protein, mutant E64S K81H L121P (Fc fusion)
chain: EPPTACREKQYLINSQCCSLCQPGQKLVSDCTEFTETECLPCGSSEFLDTWNRETHCHQHHYCDPNLGLRVQQKGTSETDTICTCEEGWHCTSEACESCVPHRSCSPGFGVKQIATGVSDTICEPCPVGFFSNVSSAFEKCHPWTSCETKDLVVQQAGTNKTDVVCGP
notes: COS7 culture supernatant; not shown: human IgG Fc tail
B2: CD40 EC-Ig fusion protein, mutant E64Y K81T P85Y (Fc fusion)
chain: EPPTACREKQYLINSQCCSLCQPGQKLVSDCTEFTETECLPCGYSEFLDTWNRETHCHQHTYCDYNLGLRVQQKGTSETDTICTCEEGWHCTSEACESCVLHRSCSPGFGVKQIATGVSDTICEPCPVGFFSNVSSAFEKCHPWTSCETKDLVVQQAGTNKTDVVCGP
notes: COS7 culture supernatant; also called triple mutant E64Y K81T P85Y; not shown: human IgG Fc tail
B3: hCD40-4s EC-mthIgG (Fc fusion)
chain: EPPTACREKQYLINSQCCSLCQPGQKLVSDCTEFTETECLPCGESEFLDTWNRETHCHQHKYCDPNLGLRVQQKGTSETDTICTCEEGWHCTSEACESCVLHRSCSPGFGVKQIATGVSDTICEPCPVGFFSNVSSAFEKCHPWTSCETKDLVVQQAGTNKTDVVCGPDLSGGGGSGGGGSGGGGSGGGGSTGLEPKSSDKTHTSPPSPAPELLGGSSVFLFPPKPKDTLMISRTPEVTCVVVDVSHEDPEVKFNWYVDGVEVHNAKTKPREEQYNSTYRVVSVLTVLHQDWLNGKEYKCKVSNKALPASIEKTISKAKGQPREPQVYTLPPSRDELTKNQVSLTCLVKGFYPSDIAVEWESNGQPENNYKTTPPVLDSDGSFFLYSKLTVDKSRWQQGNVFSCSVMHEALHNHYTQKSLSLSPGK
notes: also called human (h)CD40-SSSH-mthIgG1; hCD40mthIgG

Assays:
[1] = target: T1, recombinant human CD40L (Peprotech, …); assay: CD40L antigen binding ELISA normalised to IgG sandwich ELISA, COS supernatants
Description: Coated plates were washed twice in wash buffer: (PBS/0.05% Tween-20/0.01% Kathon), and blocked overnight at 4° C. in 200 ul/well PBS/2.5% BSA. Blocked plates were washed three times in wash buffer, and serial dilutions of each culture supernatant in (D-PBS, 0.2% BSA) added to successive wells in each plate: (20×, 40×, 80×, and 160× of each supernatant). Supernatant dilutions were incubated overnight at 4° C. Plates were washed three times in wash buffer, then incubated with HRP (horseradish peroxidase) conjugated goat anti-human IgG (Fc specific) (Catalog #109-036-008, Jackson Immunoresearch, West Grove, Pa.) at a 1:7,500 dilution in PBS for 1-2 hours at room temperature. Plates were washed 4-5 times in wash buffer, then 80 ul/well TMB Sureblue peroxidase substrate was added (Catalog #52-00-02, KPL Laboratories, Gaithersburg, Md.). Color was allowed to develop for 5-15 minutes, and reactions stopped by addition of 80 ul/well 1 N HCL. Plates were read using a Biotek SYNERGY® 2 (Biotek Instruments, Winooski, Vt.) plate reader at […], and data analyzed with Gen5 v2 software.

[2] = target: T2, human CD40 ligand (CD40L, CD154) …; assay: flow cytometry, serial dilutions of purified fusion protein on Jurkat cells, AF647 goat anti-human IgG detection
[3] = target: T3, recombinant human PCSK9-his6 (AcroBiosystems, Catalog # PC9-H5223) (human, UniProt Q8NBP7 31-692); assay: PCSK9 antigen binding ELISA, fusion protein immobilized, PCSK9-his6 in solution, HRP anti-his6 detection
T3 construct: Bought reagent; also called PCSK9-his6 antigen; PCSK9-his 6 antigen; not shown: his6 tag
T3 sequence (Q8NBP7 31-692 limits assumed): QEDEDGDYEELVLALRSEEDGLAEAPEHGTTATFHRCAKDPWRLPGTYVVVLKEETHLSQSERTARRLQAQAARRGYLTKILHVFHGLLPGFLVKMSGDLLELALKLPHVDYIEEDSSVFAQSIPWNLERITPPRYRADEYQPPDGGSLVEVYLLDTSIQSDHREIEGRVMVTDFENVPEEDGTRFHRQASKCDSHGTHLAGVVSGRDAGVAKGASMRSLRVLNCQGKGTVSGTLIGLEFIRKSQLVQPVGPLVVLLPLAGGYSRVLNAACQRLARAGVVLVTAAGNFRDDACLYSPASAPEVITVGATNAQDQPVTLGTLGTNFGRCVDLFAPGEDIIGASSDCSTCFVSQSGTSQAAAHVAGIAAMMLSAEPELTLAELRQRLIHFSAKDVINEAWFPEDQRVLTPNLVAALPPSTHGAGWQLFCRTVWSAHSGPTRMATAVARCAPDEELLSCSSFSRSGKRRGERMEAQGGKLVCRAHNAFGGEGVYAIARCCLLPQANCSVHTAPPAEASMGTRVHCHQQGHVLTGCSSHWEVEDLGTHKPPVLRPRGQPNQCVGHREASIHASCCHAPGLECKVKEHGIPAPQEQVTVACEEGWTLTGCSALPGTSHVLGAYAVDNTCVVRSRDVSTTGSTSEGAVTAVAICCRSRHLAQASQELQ

Binder	binding result [1]	binding result [2]	binding result [3]
B1	binds		
B2	binds		
B3		binds	no binding
